# T1: MBP-tagged Mus musculus SPO11 (Mus musculus, UniProt Q9WTK8 1-396)
# T1 construct: SPO11, Mus musculus; expected molecular mass of MBP–SPO11 87.4 kDa; active-site tyrosines Y137 and Y138; also called MBP–SPO11; mouse SPO11; source: baculovirus-infected Sf9 insect cells, purified (amylose, Superdex 200, cation exchange); for the complex co-expressed with TOP6BL and purified (Ni-NTA, amylose, Superdex 200); not shown: MBP, N-terminal, kept
# T1 sequence (looked up): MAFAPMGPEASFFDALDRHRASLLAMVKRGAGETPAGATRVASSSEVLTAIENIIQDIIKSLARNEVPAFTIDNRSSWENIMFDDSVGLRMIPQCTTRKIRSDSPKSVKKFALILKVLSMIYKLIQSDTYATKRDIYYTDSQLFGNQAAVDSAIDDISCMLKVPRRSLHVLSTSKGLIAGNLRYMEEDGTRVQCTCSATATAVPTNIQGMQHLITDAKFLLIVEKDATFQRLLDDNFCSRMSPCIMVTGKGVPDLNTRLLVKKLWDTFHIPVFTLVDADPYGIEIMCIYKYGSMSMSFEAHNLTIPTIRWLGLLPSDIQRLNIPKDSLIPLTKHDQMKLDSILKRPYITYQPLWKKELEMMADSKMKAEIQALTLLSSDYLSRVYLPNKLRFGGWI
# T2: MBP-SPO11;TOP6BL (Mus musculus;Mus musculus, UniProt Q9WTK8;J3QMY9 1-396;1-579, |)
# T2 sequence 1: T1 sequence (looked up)
# T2 sequence 2: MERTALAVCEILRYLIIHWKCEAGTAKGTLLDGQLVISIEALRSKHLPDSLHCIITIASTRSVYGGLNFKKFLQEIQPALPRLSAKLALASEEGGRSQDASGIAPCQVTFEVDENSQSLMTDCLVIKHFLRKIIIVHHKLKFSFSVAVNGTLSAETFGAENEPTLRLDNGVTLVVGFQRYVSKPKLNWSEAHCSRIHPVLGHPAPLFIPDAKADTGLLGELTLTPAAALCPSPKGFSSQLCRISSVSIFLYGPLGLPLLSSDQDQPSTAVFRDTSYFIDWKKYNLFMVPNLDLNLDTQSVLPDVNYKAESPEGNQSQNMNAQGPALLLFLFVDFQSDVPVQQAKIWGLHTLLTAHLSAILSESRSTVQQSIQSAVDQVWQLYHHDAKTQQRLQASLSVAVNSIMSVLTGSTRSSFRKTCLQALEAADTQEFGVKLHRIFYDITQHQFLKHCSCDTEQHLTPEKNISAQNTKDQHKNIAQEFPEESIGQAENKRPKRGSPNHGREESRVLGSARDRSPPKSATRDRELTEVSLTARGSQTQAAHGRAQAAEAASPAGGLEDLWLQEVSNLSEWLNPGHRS
# B1: His–Flag-tagged Mus musculus TOP6BL (natural protein, UniProt J3QMY9 1-579, looked up)
# chain: T2 sequence 2
# notes: TOP6BL (topo VIB-like subunit), Mus musculus; also called His–mTOP6BL–Flag; mTOP6BL; not shown: His, N-terminal, kept; Flag, C-terminal, kept
# B2: cb957 hairpin, 25 bp, 2-nt 5' overhang (structured_DNA)
# DNA: TAGCAATGTAATCGTCTATGACGTTAACGTCATAGACGATTACATTGC
# Columns and labels:
# [1] = molecular target: T1, MBP-tagged Mus musculus SPO11; experiment: SEC-MALS; co-expressed and co-purified MBP–SPO11 and His–Flag TOP6BL complex (Ni-NTA, amylose, Superdex 200); Superdex 200 increase 10/300 GL; 25 mM HEPES-NaOH pH 7.5, 500 mM NaCl, 10% glycerol, 5 mM EDTA, 2 mM DTT; settings: both partners purified
# MBP-SPO11;TOP6BL = molecular target: T2, MBP-SPO11;TOP6BL; experiment: EMSA; 5 mM EDTA, 0.1 nM DNA; EMSA: 25 mM Tris-HCl pH 7.5, 7.5% glycerol, 50 mM NaCl, 2 mM DTT, 5 mM EDTA, 1 mg/ml BSA, 37 C, 30 min; 0.1 nM labelled hairpin or 100 ng plasmid in 20 µl; settings: protein: recombinant;recombinant; tags: MBP;His-Flag; copies: 1;1; label: 5' 32P; hairpin, 2-nt 5' overhang
Binder,stoichiometry N [1],binding result (MBP-SPO11;TOP6BL)
B1,1,–
B2,–,binds
